Data on 16 molecules can be found in patent US20180155451A1 (published 2018).

The assay addresses T1, FcγRIa extracellular domain with C-terminal His tag (human, UniProt P12314 16-292).
T1 construct: extracellular domain; soluble analyte in Biacore; also called FcgRI; CD64
As to the kind of experiment: SPR (Biacore), relative FcγRIa binding, GpH7-A5/GpH7-B3/GpL16-k0 (HeCon Ab) = 100. In general terms: Surface plasmon resonance follows binding to a sensor surface in real time, without labels.

T1 sequence (P12314 16-292): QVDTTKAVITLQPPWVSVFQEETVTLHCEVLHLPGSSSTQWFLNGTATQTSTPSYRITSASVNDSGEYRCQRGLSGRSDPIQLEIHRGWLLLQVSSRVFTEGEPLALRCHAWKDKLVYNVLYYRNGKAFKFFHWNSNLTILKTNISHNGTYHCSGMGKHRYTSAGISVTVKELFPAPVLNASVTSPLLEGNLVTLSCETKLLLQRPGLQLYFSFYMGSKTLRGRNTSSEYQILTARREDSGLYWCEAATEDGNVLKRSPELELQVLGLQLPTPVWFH

B1: GpH7-A5/GpH7-B3 variant K334_01G/GpL16-k0 (antibody, human IgG1, kappa)
heavy 1: not shown
heavy 2: not shown
light: DIVMTQSPLSLPVTPGEPASISCQASESLVHSNRNTYLHWYLQKPGQSPQLLIYKVSNRFSGVPDRFSGSGSGTDFTLKISRVEAEDVGVYYCSQNTHVPPTFGQGTKVEIERTVAAPSVFIFPPSDEQLKSGTASVVCLLNNFYPREAKVQWKVDNALQSGNSQESVTEQDSKDSTYSLSSTLTLSKADYEKHKVYACEVTHQGLSSPVTKSFNRGEC
notes: heterodimerized antibody, mutation in one H chain only; also called K334_01G He Ab
B1: the He/Con_1a is 104 % of control.

B2: GpH7-A5/GpH7-B3 variant K334_02A/GpL16-k0 (antibody, human IgG1, kappa)
heavy 1: not shown
heavy 2: not shown
light: DIVMTQSPLSLPVTPGEPASISCQASESLVHSNRNTYLHWYLQKPGQSPQLLIYKVSNRFSGVPDRFSGSGSGTDFTLKISRVEAEDVGVYYCSQNTHVPPTFGQGTKVEIERTVAAPSVFIFPPSDEQLKSGTASVVCLLNNFYPREAKVQWKVDNALQSGNSQESVTEQDSKDSTYSLSSTLTLSKADYEKHKVYACEVTHQGLSSPVTKSFNRGEC
notes: heterodimerized antibody, mutation in one H chain only; also called K334_02A He Ab
In the case of B2, the He/Con_1a was 106 % of control.

B3: GpH7-A5/GpH7-B3 variant K326_06M/GpL16-k0 (antibody, human IgG1, kappa)
heavy 1: not shown
heavy 2: not shown
light: DIVMTQSPLSLPVTPGEPASISCQASESLVHSNRNTYLHWYLQKPGQSPQLLIYKVSNRFSGVPDRFSGSGSGTDFTLKISRVEAEDVGVYYCSQNTHVPPTFGQGTKVEIERTVAAPSVFIFPPSDEQLKSGTASVVCLLNNFYPREAKVQWKVDNALQSGNSQESVTEQDSKDSTYSLSSTLTLSKADYEKHKVYACEVTHQGLSSPVTKSFNRGEC
notes: heterodimerized antibody, mutation in one H chain only; also called K326_06M He Ab
Consider B3, for which the He/Con_1a is 102 % of control.

B4: GpH7-A5/GpH7-B3 variant I336_16H/GpL16-k0 (antibody, human IgG1, kappa)
heavy 1: not shown
heavy 2: not shown
light: DIVMTQSPLSLPVTPGEPASISCQASESLVHSNRNTYLHWYLQKPGQSPQLLIYKVSNRFSGVPDRFSGSGSGTDFTLKISRVEAEDVGVYYCSQNTHVPPTFGQGTKVEIERTVAAPSVFIFPPSDEQLKSGTASVVCLLNNFYPREAKVQWKVDNALQSGNSQESVTEQDSKDSTYSLSSTLTLSKADYEKHKVYACEVTHQGLSSPVTKSFNRGEC
notes: heterodimerized antibody, mutation in one H chain only; also called I336_16H He Ab
Turning to B4, the He/Con_1a is 101 % of control.

B5: GpH7-A5/GpH7-B3 variant K334_05P/GpL16-k0 (antibody, human IgG1, kappa)
heavy 1: not shown
heavy 2: not shown
light: DIVMTQSPLSLPVTPGEPASISCQASESLVHSNRNTYLHWYLQKPGQSPQLLIYKVSNRFSGVPDRFSGSGSGTDFTLKISRVEAEDVGVYYCSQNTHVPPTFGQGTKVEIERTVAAPSVFIFPPSDEQLKSGTASVVCLLNNFYPREAKVQWKVDNALQSGNSQESVTEQDSKDSTYSLSSTLTLSKADYEKHKVYACEVTHQGLSSPVTKSFNRGEC
notes: heterodimerized antibody, mutation in one H chain only; also called K334_05P He Ab
Regarding B5, the He/Con_1a was 104 % of control.

B6: GpH7-A5/GpH7-B3 variant K334_03V/GpL16-k0 (antibody, human IgG1, kappa)
heavy 1: not shown
heavy 2: not shown
light: DIVMTQSPLSLPVTPGEPASISCQASESLVHSNRNTYLHWYLQKPGQSPQLLIYKVSNRFSGVPDRFSGSGSGTDFTLKISRVEAEDVGVYYCSQNTHVPPTFGQGTKVEIERTVAAPSVFIFPPSDEQLKSGTASVVCLLNNFYPREAKVQWKVDNALQSGNSQESVTEQDSKDSTYSLSSTLTLSKADYEKHKVYACEVTHQGLSSPVTKSFNRGEC
notes: heterodimerized antibody, mutation in one H chain only; also called K334_03V He Ab
B6: the He/Con_1a was 105 % of control.

B7: GpH7-A5/GpH7-B3 variant K326_04F/GpL16-k0 (antibody, human IgG1, kappa)
heavy 1: not shown
heavy 2: not shown
light: DIVMTQSPLSLPVTPGEPASISCQASESLVHSNRNTYLHWYLQKPGQSPQLLIYKVSNRFSGVPDRFSGSGSGTDFTLKISRVEAEDVGVYYCSQNTHVPPTFGQGTKVEIERTVAAPSVFIFPPSDEQLKSGTASVVCLLNNFYPREAKVQWKVDNALQSGNSQESVTEQDSKDSTYSLSSTLTLSKADYEKHKVYACEVTHQGLSSPVTKSFNRGEC
notes: heterodimerized antibody, mutation in one H chain only; also called K326_04F He Ab
Consider B7, for which the He/Con_1a was 102 % of control.

B8: GpH7-A5/GpH7-B3 variant K326_20W/GpL16-k0 (antibody, human IgG1, kappa)
heavy 1: not shown
heavy 2: not shown
light: DIVMTQSPLSLPVTPGEPASISCQASESLVHSNRNTYLHWYLQKPGQSPQLLIYKVSNRFSGVPDRFSGSGSGTDFTLKISRVEAEDVGVYYCSQNTHVPPTFGQGTKVEIERTVAAPSVFIFPPSDEQLKSGTASVVCLLNNFYPREAKVQWKVDNALQSGNSQESVTEQDSKDSTYSLSSTLTLSKADYEKHKVYACEVTHQGLSSPVTKSFNRGEC
notes: heterodimerized antibody, mutation in one H chain only; also called K326_20W He Ab
For B8, the He/Con_1a is 103 % of control.

B9: GpH7-A5/GpH7-B3 variant I336_15Y/GpL16-k0 (antibody, human IgG1, kappa)
heavy 1: not shown
heavy 2: not shown
light: DIVMTQSPLSLPVTPGEPASISCQASESLVHSNRNTYLHWYLQKPGQSPQLLIYKVSNRFSGVPDRFSGSGSGTDFTLKISRVEAEDVGVYYCSQNTHVPPTFGQGTKVEIERTVAAPSVFIFPPSDEQLKSGTASVVCLLNNFYPREAKVQWKVDNALQSGNSQESVTEQDSKDSTYSLSSTLTLSKADYEKHKVYACEVTHQGLSSPVTKSFNRGEC
notes: heterodimerized antibody, mutation in one H chain only; also called I336_15Y He Ab
Consider B9, for which the He/Con_1a was 103 % of control.

B10: GpH7-A5/GpH7-B3 variant K326_07I/GpL16-k0 (antibody, human IgG1, kappa)
heavy 1: not shown
heavy 2: not shown
light: DIVMTQSPLSLPVTPGEPASISCQASESLVHSNRNTYLHWYLQKPGQSPQLLIYKVSNRFSGVPDRFSGSGSGTDFTLKISRVEAEDVGVYYCSQNTHVPPTFGQGTKVEIERTVAAPSVFIFPPSDEQLKSGTASVVCLLNNFYPREAKVQWKVDNALQSGNSQESVTEQDSKDSTYSLSSTLTLSKADYEKHKVYACEVTHQGLSSPVTKSFNRGEC
notes: heterodimerized antibody, mutation in one H chain only; also called K326_07I He Ab
As for B10, the He/Con_1a is 101 % of control.

B11: GpH7-A5/GpH7-B3 variant K326_10E/GpL16-k0 (antibody, human IgG1, kappa)
heavy 1: not shown
heavy 2: not shown
light: DIVMTQSPLSLPVTPGEPASISCQASESLVHSNRNTYLHWYLQKPGQSPQLLIYKVSNRFSGVPDRFSGSGSGTDFTLKISRVEAEDVGVYYCSQNTHVPPTFGQGTKVEIERTVAAPSVFIFPPSDEQLKSGTASVVCLLNNFYPREAKVQWKVDNALQSGNSQESVTEQDSKDSTYSLSSTLTLSKADYEKHKVYACEVTHQGLSSPVTKSFNRGEC
notes: heterodimerized antibody, mutation in one H chain only; also called K326_10E He Ab
As to B11, the He/Con_1a was 104 % of control.

B12: GpH7-A5/GpH7-B3 variant K326_08L/GpL16-k0 (antibody, human IgG1, kappa)
heavy 1: not shown
heavy 2: not shown
light: DIVMTQSPLSLPVTPGEPASISCQASESLVHSNRNTYLHWYLQKPGQSPQLLIYKVSNRFSGVPDRFSGSGSGTDFTLKISRVEAEDVGVYYCSQNTHVPPTFGQGTKVEIERTVAAPSVFIFPPSDEQLKSGTASVVCLLNNFYPREAKVQWKVDNALQSGNSQESVTEQDSKDSTYSLSSTLTLSKADYEKHKVYACEVTHQGLSSPVTKSFNRGEC
notes: heterodimerized antibody, mutation in one H chain only; also called K326_08L He Ab
For B12, the He/Con_1a was 100 % of control.

B13: GpH7-A5/GpH7-B3 variant K334_04F/GpL16-k0 (antibody, human IgG1, kappa)
heavy 1: not shown
heavy 2: not shown
light: DIVMTQSPLSLPVTPGEPASISCQASESLVHSNRNTYLHWYLQKPGQSPQLLIYKVSNRFSGVPDRFSGSGSGTDFTLKISRVEAEDVGVYYCSQNTHVPPTFGQGTKVEIERTVAAPSVFIFPPSDEQLKSGTASVVCLLNNFYPREAKVQWKVDNALQSGNSQESVTEQDSKDSTYSLSSTLTLSKADYEKHKVYACEVTHQGLSSPVTKSFNRGEC
notes: heterodimerized antibody, mutation in one H chain only; also called K334_04F He Ab
For B13, the He/Con_1a was 105 % of control.

B14: GpH7-A5/GpH7-B3 variant K326_03V/GpL16-k0 (antibody, human IgG1, kappa)
heavy 1: not shown
heavy 2: not shown
light: DIVMTQSPLSLPVTPGEPASISCQASESLVHSNRNTYLHWYLQKPGQSPQLLIYKVSNRFSGVPDRFSGSGSGTDFTLKISRVEAEDVGVYYCSQNTHVPPTFGQGTKVEIERTVAAPSVFIFPPSDEQLKSGTASVVCLLNNFYPREAKVQWKVDNALQSGNSQESVTEQDSKDSTYSLSSTLTLSKADYEKHKVYACEVTHQGLSSPVTKSFNRGEC
notes: heterodimerized antibody, mutation in one H chain only; also called K326_03V He Ab
Turning to B14, the He/Con_1a is 102 % of control.

B15: GpH7-A5/GpH7-B3 variant K326_19Q/GpL16-k0 (antibody, human IgG1, kappa)
heavy 1: not shown
heavy 2: not shown
light: DIVMTQSPLSLPVTPGEPASISCQASESLVHSNRNTYLHWYLQKPGQSPQLLIYKVSNRFSGVPDRFSGSGSGTDFTLKISRVEAEDVGVYYCSQNTHVPPTFGQGTKVEIERTVAAPSVFIFPPSDEQLKSGTASVVCLLNNFYPREAKVQWKVDNALQSGNSQESVTEQDSKDSTYSLSSTLTLSKADYEKHKVYACEVTHQGLSSPVTKSFNRGEC
notes: heterodimerized antibody, mutation in one H chain only; also called K326_19Q He Ab
Turning to B15, the He/Con_1a was 102 % of control.

B16: GpH7-A5/GpH7-B3 variant K326_09D/GpL16-k0 (antibody, human IgG1, kappa)
heavy 1: not shown
heavy 2: not shown
light: DIVMTQSPLSLPVTPGEPASISCQASESLVHSNRNTYLHWYLQKPGQSPQLLIYKVSNRFSGVPDRFSGSGSGTDFTLKISRVEAEDVGVYYCSQNTHVPPTFGQGTKVEIERTVAAPSVFIFPPSDEQLKSGTASVVCLLNNFYPREAKVQWKVDNALQSGNSQESVTEQDSKDSTYSLSSTLTLSKADYEKHKVYACEVTHQGLSSPVTKSFNRGEC
notes: heterodimerized antibody, mutation in one H chain only; also called K326_09D He Ab
Take B16: the He/Con_1a was 103 % of control.
